# From US20210363261A1 (DRAGONFLY THERAPEUTICS, published 2021)
# Target: T1, fibroblast activation protein (FAP) expressed on human cell lines LL86, COLO 829 and U-87 MG (human, UniProt Q12884 1-760)
# T1 construct: the assays used endogenous FAP on human cell lines
# Assay: flow cytometry on LL86, COLO 829 and U-87 MG cells, anti-human IgG detection, MFI fold over background
# Procedure: Multi-specific binding proteins or corresponding monoclonal antibodies (mAb) having the same FAP binding site were diluted and incubated with the cells. Binding was detected using fluorophore-conjugated anti-human IgG secondary antibody. Cells were analyzed by flow cytometry and express as mean fluorescence intensity (MFI) normalized to human recombinant IgG1 stained controls to obtain fold over background (FOB) values.
row,Binder,binding result
1,"corresponding monoclonal antibody having the same FAP binding site as FAP-multi-specific BP Sibrotuzumab (antibody, V domains shown, also called FAP-mAb; anti-FAP mAb) VH: QVQLVQSGAEVKKPGASVKVSCKTSRYTFTEYTIHWVRQAPGQRLEWIGGINPNNGIPNYNQKFKGRVTITVDTSASTAYMELSSLRSEDTAVYYCARRRIAYGYDEGHAMDYWGQGTLVTVSS VL: DIVMTQSPDSLAVSLGERATINCKSSQSLLYSRNQKNYLAWYQQKPGQPPKLLIFWASTRESGVPDRFSGSGFGTDFTLTISSLQAEDVAVYYCQQYFSYPLTFGQGTKVEIK",binds
2,"corresponding monoclonal antibody having the same FAP binding site as FAP-multi-specific BP 4G8 (antibody, V domains shown, also called FAP-mAb; anti-FAP mAb) VH: not shown VL: EIVLTQSPGTLSLSPGERATLSCRASQSVSRSYLAWYQQKPGQAPRLLIIGASTRATGIPDRFSGSGSGTDFTLTISRLEPEDFAVYYCQQGQVIPPTFGQGTKVEIK",binds
3,"corresponding monoclonal antibody having the same FAP binding site as FAP-multi-specific BP 29B11 (antibody, V domains shown, also called FAP-mAb; anti-FAP mAb) VH: EVQLLESGGGLVQPGGSLRLSCAASGFTFSSYAMSWVRQAPGKGLEWVSAIIGSGGITYYADSVKGRFTISRDNSKNTLYLQMNSLRAEDTAVYYCAKGWFGGFNYWGQGTLVTVSS VL: EIVLTQSPGTLSLSPGERATLSCRASQSVTSSYLAWYQQKPGQAPRLLINVGSRRATGIPDRFSGSGSGTDFTLTISRLEPEDFAVYYCQQGIMLPPTFGQGTKVEIK",binds
